A short description of the data set: Analytical ultracentrifugation (AUC) of assembled peptidic nanoparticles. It counts as physicochemical.

B1: Trimer(Foldon)Cys11—Linker—COMP (protein)
chain: GSGYIPEAPRCGQAYVRKDGEWVLLSTFLGGSGLAPQMLRELQETNAALQDVRELLRQQVKQITFLKNTVMECDACG
Regarding B1, the No. of monomers was found to be 10.1 (Example 5 preparation 1 (dissolved directly, 2 mM DTT), 0.3 mg/ml); 9.8 (Example 5 preparation 1 (dissolved directly, 2 mM DTT), 0.6 mg/ml); 11.3 (Example 5 preparation 1 (dissolved directly, 2 mM DTT), 1.2 mg/ml); 15.1 (Example 5 preparation 2 (refolded from 8 M urea), 0.24 mg/ml); 14.3 (Example 5 preparation 2 (refolded from 8 M urea), 0.4 mg/ml); 14.8 (Example 5 preparation 2 (refolded from 8 M urea), 1.2 mg/ml). The No. of monomers (Example 5 preparation 2 (refolded from 8 M urea), concentration independent, one even unit) stood at 15.

B2: Trimer(Foldon)Cys11—COMP (protein)
chain: GSGYIPEAPRCGQAYVRKDGEWVLLSTFLGGLAPQMLRELQETNAALQDVRELLRQQVKQITFLKNTVMECDACG
notes: Recombinant foldon, two-glycine linker, COMP peptide; residue Asp 11 replaced by a cystein residue
In turn, B2 yielded a No. of monomers (Example 4 preparation 1 (no DTT), 0.2 mg/ml) of 9.0 and a No. of monomers (Example 4 preparation 2 (2 mM DTT), 0.2 mg/ml) of 11.2.
